# Data taken from patent US20080176209.
# Tested on: TL-3
substance,measurement,value
FIV protease (Feline Immunodeficiency Virus protease),enzymatic reaction activity in a kinetic FRET assay with a fluorogenic substrate peptide over a 20 minute time course,the enzymatic activity was blocked by TL-3
